Molecular target: GST-stx-1A (syntaxin-1A, GST fusion, immobilised on glutathione-sepharose beads) (UniProt P32851)
Assay: pull-down; GST-stx-1A immobilised on glutathione-sepharose beads; one prey protein (5 µM), 20 hr, 4°C; 100 mM NaCl, 20 mM Tris, 1 mM DTT, 1 mM EDTA, 0.5% Triton X-100, pH 7.4; four washes; SDS-PAGE, Coomassie, molar retention ratio by densitometry

UniProt P32851, sequence (P32851 1-262): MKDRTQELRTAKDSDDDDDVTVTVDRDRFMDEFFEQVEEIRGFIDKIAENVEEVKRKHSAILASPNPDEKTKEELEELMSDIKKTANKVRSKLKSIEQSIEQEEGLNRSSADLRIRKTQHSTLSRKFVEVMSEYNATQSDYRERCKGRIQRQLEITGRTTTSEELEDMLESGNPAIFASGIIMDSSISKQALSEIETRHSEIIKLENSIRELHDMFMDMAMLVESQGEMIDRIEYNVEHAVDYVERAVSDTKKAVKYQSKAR

Substance “SN25 L^GGS (6xHis-tagged, recombinant; whole linker aa 83-141 substituted by a flexible G/S peptide) (from UniProt P60881-2 1-82; P60881-2 142-206) (natural protein)” has a molar ratio bound, percent lower than WT of 50 % lower.
